The target in one data set is T1, GS2 (OsGRF4) (Oryza sativa (rice), ZH11?, UniProt Q6ZIK5 1-394).
T1 sequence: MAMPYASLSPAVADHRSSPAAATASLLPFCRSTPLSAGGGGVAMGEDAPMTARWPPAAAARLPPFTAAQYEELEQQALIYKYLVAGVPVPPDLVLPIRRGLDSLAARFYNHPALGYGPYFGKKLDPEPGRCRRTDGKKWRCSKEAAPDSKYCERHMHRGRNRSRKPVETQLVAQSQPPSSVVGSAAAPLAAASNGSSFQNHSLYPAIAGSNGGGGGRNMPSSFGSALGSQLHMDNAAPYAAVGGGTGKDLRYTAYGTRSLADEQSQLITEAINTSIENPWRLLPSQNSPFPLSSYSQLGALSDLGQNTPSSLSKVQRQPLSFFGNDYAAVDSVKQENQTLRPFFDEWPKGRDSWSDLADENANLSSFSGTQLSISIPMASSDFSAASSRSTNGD
Description: EMSA; EMSA: 20 min at 25 C, 4% acrylamide gel, biotin probes (Beyotime GS008/GS009); buffer, salt and pH not stated. As to conditions: protein: recombinant; tags: GST; label: biotin; blunt. A general note: A gel shift assay detects complexes by their altered migration in electrophoresis.

In data set [1] the target is T2, GS2TM (miR396 target-site mutant) (Oryza sativa (rice), GS2TM plants?, UniProt Q6ZIK5 1-394, S163K).
T2 sequence: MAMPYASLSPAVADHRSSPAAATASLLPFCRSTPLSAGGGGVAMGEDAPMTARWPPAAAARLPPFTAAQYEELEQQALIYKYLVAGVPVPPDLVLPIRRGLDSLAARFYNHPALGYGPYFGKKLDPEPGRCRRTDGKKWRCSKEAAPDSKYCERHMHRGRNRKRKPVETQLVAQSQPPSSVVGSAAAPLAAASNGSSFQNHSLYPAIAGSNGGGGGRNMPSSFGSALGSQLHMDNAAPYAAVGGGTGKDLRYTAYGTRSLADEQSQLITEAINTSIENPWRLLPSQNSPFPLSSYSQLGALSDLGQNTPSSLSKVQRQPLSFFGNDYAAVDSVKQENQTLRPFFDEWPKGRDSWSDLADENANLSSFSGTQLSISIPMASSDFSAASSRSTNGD
The data set is described as above. The conditions noted are these: protein: recombinant; tags: GST; label: biotin; blunt.

In another data set the target is T3, GST-IPA1 fusion protein (rice (Oryza sativa), UniProt Q7EXZ2 1-417).
T3 construct: IPA1/OsSPL14 of rice, full-length CDS in pGEX-4T-1; source: E. coli BL21 (DE3), purified on glutathione beads
T3 sequence (looked up): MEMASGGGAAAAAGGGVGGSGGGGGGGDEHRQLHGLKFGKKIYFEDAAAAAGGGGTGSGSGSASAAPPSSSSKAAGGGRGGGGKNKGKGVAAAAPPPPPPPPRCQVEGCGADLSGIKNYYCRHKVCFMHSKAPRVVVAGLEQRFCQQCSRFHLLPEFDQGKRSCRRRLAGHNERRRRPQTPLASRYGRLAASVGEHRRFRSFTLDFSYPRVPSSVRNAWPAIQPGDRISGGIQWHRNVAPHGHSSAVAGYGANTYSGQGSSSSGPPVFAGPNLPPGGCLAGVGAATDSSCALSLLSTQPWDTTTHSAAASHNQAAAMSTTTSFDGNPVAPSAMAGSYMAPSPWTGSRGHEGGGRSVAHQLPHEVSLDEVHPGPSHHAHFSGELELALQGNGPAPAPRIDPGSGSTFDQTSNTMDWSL
Description: pull-down; about 0.5 μg GST-IPA1 bound to GST beads at 4°C for 2 h, the same amount of His-GS2 incubated for 2 h; 150 mM KCl, 50 mM Tris-HCl pH 7.5, 0.01% NP-40; detected with His and GST antibodies. As to conditions: both partners purified.

B1: GCCA core motif probe (GS2-EMSA) (dsDNA)
DNA 1: CCTGTCAAAGCCGGCCATCGCTGCCGGCTG
DNA 2: CAGCCGGCAGCGATGGCCGGCTTTGACAGG
Take B1: the binding result (in the data set with GS2 (OsGRF4); in data set [1]) was “binds” in each case.

B2: His-GS2 fusion protein (natural protein, rice (Oryza sativa), UniProt Q6ZIK5 1-394, looked up)
chain: MAMPYASLSPAVADHRSSPAAATASLLPFCRSTPLSAGGGGVAMGEDAPMTARWPPAAAARLPPFTAAQYEELEQQALIYKYLVAGVPVPPDLVLPIRRGLDSLAARFYNHPALGYGPYFGKKLDPEPGRCRRTDGKKWRCSKEAAPDSKYCERHMHRGRNRSRKPVETQLVAQSQPPSSVVGSAAAPLAAASNGSSFQNHSLYPAIAGSNGGGGGRNMPSSFGSALGSQLHMDNAAPYAAVGGGTGKDLRYTAYGTRSLADEQSQLITEAINTSIENPWRLLPSQNSPFPLSSYSQLGALSDLGQNTPSSLSKVQRQPLSFFGNDYAAVDSVKQENQTLRPFFDEWPKGRDSWSDLADENANLSSFSGTQLSISIPMASSDFSAASSRSTNGD
notes: GS2/OsGRF4 of rice, full-length CDS in pET28a
In the case of B2, the binding result in the data set with GST-IPA1 fusion protein is recorded as “binds”.
